Paper PMC4749569, “Atomic structure of the 26S proteasome lid reveals the mechanism of deubiquitinase inhibition” (eLife, 2016)
Numbering of substitutions follows the chain as printed. Names and notes keep the numbering of the source. One block for each binder: values may come before it.

Experiments:
[1] = target: Rpn11 (S. cerevisiae (yeast)) (UniProt P43588)
[2] = target: Rpn11 (S. cerevisiae (yeast)) (UniProt P43588); remark: listed apart in the source
Rpn11 = Rpn11 (S. cerevisiae (yeast), UniProt P43588 1-306); assay: cell-based or functional assay
Rpn11, sequence (P43588 whole entry): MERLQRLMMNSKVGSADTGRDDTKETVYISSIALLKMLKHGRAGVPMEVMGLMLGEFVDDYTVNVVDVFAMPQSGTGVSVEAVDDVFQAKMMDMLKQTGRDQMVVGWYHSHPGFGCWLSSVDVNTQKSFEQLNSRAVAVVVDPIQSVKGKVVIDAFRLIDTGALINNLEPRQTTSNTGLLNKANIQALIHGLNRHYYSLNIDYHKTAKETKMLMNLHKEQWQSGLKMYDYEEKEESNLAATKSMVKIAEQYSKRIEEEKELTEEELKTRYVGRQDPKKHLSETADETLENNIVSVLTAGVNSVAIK

[3] = target: Rpn11 (S. cerevisiae (yeast)) (UniProt P43588); remark: listed apart in the source
[4] = target: T1, Rpn9 (S. cerevisiae (yeast)) (UniProt Q04062)
T1 sequence: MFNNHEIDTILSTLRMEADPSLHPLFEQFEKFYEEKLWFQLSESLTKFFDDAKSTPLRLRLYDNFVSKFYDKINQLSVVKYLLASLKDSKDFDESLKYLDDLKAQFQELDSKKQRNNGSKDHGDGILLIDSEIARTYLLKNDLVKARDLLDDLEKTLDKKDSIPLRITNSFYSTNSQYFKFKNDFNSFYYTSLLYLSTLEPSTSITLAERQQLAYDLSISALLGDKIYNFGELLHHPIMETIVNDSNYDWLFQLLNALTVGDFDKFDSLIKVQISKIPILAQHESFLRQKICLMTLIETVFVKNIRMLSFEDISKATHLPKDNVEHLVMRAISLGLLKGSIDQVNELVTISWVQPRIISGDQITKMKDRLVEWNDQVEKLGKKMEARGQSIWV

Rpn11 (S. cerevisiae (yeast)), sequence (P43588 whole entry): as the sequence (P43588 whole entry) above

Ub-AMC cleavage rate of Rpn11 in the isolated lid with this variant, relative to the isolated Rpn11/Rpn8 dimer (% of the isolated Rpn11/Rpn8 dimer) [1]: 61
B1: Rpn5 (Y273A) (natural protein)
chain: MSRDAPIKADKDYSQILKEEFPKIDSLAQNDCNSALDQLLVLEKKTRQASDLASSKEVLAKIVDLLASRNKWDDLNEQLTLLSKKHGQLKLSIQYMIQKVMEYLKSSKSLDLNTRISVIETIRVVTENKIFVEVERARVTKDLVEIKKEEGKIDEAADILCELQVETYGSMEMSEKIQFILEQMELSILKGDYSQATVLSRKILKKTFKNPKYESLKLEYYNLLVKISLHKREYLEVAQYLQEIYQTDAIKSDEAKWKPVLSHIVYFLVLSPAGNLQNDLIHKIQNDNNLKKLESQESLVKLFTTNELMRWPIVQKTYEPVLNEDDLAFGGEANKHHWEDLQKRVIEHNLRVISEYYSRITLLRLNELLDLTESQTETYISDLVNQGIIYAKVNRPAKIVNFEKPKNSSQLLNEWSHNVDELLEHIETIGHLITKEEIMHGLQAK

Ub-AMC cleavage rate of Rpn11 in the isolated lid with this variant, relative to the free MPN heterodimer (% of the free MPN heterodimer) [2]: 31
B2: Rpn5 (H282A) (natural protein)
chain: B1 chain with A273Y, H282A

Ub-AMC cleavage rate of Rpn11 in the isolated lid with this variant, relative to the free MPN heterodimer (% of the free MPN heterodimer) [2]: 51
B3: Rpn5 (H282A,K283A) (natural protein)
chain: B1 chain with A273Y, H282A, K283A

Ub-AMC cleavage rate of Rpn11 in the isolated lid with this variant, relative to the free MPN heterodimer (% of the free MPN heterodimer) [2]: 41
B4: Rpn5 K283A (natural protein)
chain: B1 chain with A273Y, K283A

Ub-AMC cleavage rate of Rpn11 in the isolated wild-type lid against the free Rpn11/Rpn8 dimer (500 nM enzyme, 2.5 μM Ubiquitin-AMC, 30°C, lid buffer) (Rpn11): 5 fold lower
B5: Rpn5 (natural protein, S. cerevisiae (yeast))
chain: B1 chain with A273Y

Ub-AMC cleavage rate of Rpn11 in the isolated lid with this variant, relative to the isolated MPN heterodimer (% of the isolated MPN heterodimer) [3]: 51
B6: Rpn5 (N275A) (natural protein)
chain: B1 chain with A273Y, N275A

Ub-AMC cleavage rate of Rpn11 in the isolated lid with this variant, relative to the isolated MPN heterodimer (% of the isolated MPN heterodimer) [4]: 60
B7: Rpn8 (K86A,K88A) (natural protein)
chain: MSLQHEKVTIAPLVLLSALDHYERTQTKENKRCVGVILGDANSSTIRVTNSFALPFEEDEKNSDVWFLDHNYIENMNEMCKKINAAEALIGWYHSGPKLRASDLKINELFKKYTQNNPLLLIVDVKQQGVGLPTDAYVAIEQVKDDGTSTEKTFLHLPCTIEAEEAEEIGVEHLLRDVRDQAAGGLSIRLTNQLKSLKGLQSKLKDVVEYLDKVINKELPINHTILGKLQDVFNLLPNLGTPDDDEIDVENHDRINISNNLQKALTVKTNDELMVIYISNLVRSIIAFDDLIENKIQNKKIQEQRVKDKQSKVSDDSESESGDKEATAPLIQRKNKKN

Ub-AMC cleavage rate of Rpn11 in the isolated lid with this variant, relative to the free MPN heterodimer (% of the free MPN-heterodimer levels) [4]: 33
B8: Rpn8 (K86A) (natural protein)
chain: B7 chain with A88K

Ub-AMC cleavage rate of Rpn11 in the isolated lid with this variant, relative to the isolated MPN heterodimer (% of isolated MPN levels) [4]: 33
B9: Rpn8 (Q115A) (natural protein)
chain: B7 chain with A86K, A88K, Q115A

Ub-AMC cleavage rate of Rpn11 in the isolated lid with this variant, relative to the free MPN heterodimer (% of the free MPN-heterodimer levels) [4]: 45
B10: Rpn8 (K88A) (natural protein)
chain: B7 chain with A86K
